Earlier results on two substances are cited in paper PMC7019049.

One data set concerns the target pepJIP1 (Homo sapiens) (UniProt Q9UQF2).
Data set [1] concerns the target MIG6 peptide (Homo sapiens) (UniProt Q9UJM3).
UniProt Q9UJM3, sequence (Q9UJM3 2-462): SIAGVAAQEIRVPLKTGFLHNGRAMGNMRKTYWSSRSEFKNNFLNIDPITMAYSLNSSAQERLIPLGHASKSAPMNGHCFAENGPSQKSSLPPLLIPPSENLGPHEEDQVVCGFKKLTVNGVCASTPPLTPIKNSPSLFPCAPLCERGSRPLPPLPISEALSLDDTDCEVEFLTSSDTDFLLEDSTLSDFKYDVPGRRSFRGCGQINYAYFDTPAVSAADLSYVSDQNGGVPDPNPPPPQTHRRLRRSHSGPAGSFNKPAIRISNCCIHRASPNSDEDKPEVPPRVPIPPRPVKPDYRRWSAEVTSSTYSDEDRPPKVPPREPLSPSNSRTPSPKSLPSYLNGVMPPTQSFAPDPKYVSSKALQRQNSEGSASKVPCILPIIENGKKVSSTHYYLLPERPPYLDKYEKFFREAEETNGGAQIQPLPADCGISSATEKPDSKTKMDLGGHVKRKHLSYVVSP

UniProt Q9UQF2, sequence (Q9UQF2 whole entry): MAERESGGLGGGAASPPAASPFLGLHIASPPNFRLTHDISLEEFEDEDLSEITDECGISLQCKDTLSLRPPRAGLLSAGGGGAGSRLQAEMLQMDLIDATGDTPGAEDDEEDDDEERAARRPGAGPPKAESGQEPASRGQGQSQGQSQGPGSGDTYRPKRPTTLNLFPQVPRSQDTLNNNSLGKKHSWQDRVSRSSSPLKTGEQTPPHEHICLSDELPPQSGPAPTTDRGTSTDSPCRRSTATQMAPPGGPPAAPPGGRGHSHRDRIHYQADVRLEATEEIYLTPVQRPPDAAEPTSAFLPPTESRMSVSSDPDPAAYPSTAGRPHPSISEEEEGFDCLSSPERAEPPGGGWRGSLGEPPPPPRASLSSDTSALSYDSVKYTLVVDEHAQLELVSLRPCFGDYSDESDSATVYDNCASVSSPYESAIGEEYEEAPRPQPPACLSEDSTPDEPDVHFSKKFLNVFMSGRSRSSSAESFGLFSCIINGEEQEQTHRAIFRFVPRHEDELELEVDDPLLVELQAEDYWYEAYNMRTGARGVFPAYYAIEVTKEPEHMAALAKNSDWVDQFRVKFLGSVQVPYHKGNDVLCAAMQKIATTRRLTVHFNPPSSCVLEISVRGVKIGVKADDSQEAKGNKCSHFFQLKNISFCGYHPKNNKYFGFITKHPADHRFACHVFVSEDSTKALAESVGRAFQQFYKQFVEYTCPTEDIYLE

Turning to MAPK8 (JNK1) (from UniProt P45983), the dissociation constant Kd in the data set with pepJIP1 (Homo sapiens) was 0.42 µM. With “EGFR kinase domain (from UniProt P00533)”, the Kd in data set [1] is 13 µM.
